Experimental data: the supplement of paper PMC9876800

Chain of RIPK1, construct: aa1-327 (Q13546 1-327, looked up): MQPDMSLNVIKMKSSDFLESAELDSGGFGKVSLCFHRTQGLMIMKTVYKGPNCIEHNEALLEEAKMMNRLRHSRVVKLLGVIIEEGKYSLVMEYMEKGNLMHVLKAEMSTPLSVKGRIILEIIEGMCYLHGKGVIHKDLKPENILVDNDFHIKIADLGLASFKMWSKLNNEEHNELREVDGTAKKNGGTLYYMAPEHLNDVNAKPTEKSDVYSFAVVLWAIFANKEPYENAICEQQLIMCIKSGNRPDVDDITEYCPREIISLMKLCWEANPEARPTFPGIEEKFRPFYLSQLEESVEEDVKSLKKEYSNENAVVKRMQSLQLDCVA
Chain of AURKA, construct: Full length (O14965 whole entry, looked up): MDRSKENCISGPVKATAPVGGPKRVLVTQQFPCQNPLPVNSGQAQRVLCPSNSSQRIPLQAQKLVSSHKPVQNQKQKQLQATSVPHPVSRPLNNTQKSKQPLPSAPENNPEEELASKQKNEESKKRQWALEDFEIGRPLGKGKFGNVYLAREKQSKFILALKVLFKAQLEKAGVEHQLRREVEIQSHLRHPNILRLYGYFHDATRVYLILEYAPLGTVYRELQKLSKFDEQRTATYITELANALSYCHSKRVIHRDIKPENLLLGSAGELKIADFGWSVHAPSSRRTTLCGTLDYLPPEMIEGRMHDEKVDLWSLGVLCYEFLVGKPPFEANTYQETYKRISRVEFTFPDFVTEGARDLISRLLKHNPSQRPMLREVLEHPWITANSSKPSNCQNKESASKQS

The substances below were run on peptide library, one residue held at a place counted from the S/T acceptor (assay: relative phosphorylation of the sub-library (ratio to the mean residue at this position); human; higher = residue favoured). Conditions: V fixed; at +3.
In short: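 Purified recombinant kinases (human or orthologue constructs) were incubated in 384-well plates with biotinylated degenerate peptide sub-libraries, each fixing one residue at one position around a central Ser/Thr. Peptides were at 50 μM, with 50 μM ATP spiked with γ-32P-ATP, for 90 min under kinase-specific conditions. Spots on streptavidin membranes were phosphorimaged and quantified by densitometry. Relative sub-library phosphorylation is a ratio to the mean residue at that position.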
For “RIPK1, construct: aa1-327 (from UniProt Q13546)”, the relative phosphorylation was 0.917.
In the case of “AURKA, construct: Full length (from UniProt O14965)”, the relative phosphorylation is reported as 0.775.
In the case of “PRKACB, construct: Full length (from UniProt P22694)”, the relative phosphorylation is reported as 0.517.

Same assay, conditions: V fixed; at +4
In the case of “RIPK1, construct: aa1-327 (from UniProt Q13546)”, the relative phosphorylation is reported as 1.04.
“AURKA, construct: Full length (from UniProt O14965)” was tested, and the relative phosphorylation was 0.682.
For “PRKACB, construct: Full length (from UniProt P22694)”, the relative phosphorylation was 0.877.

Same assay, conditions: V fixed; at -1
In the case of “RIPK1, construct: aa1-327 (from UniProt Q13546)”, the relative phosphorylation is reported as 1.03.
“AURKA, construct: Full length (from UniProt O14965)” gave a relative phosphorylation of 0.601.
For “PRKACB, construct: Full length (from UniProt P22694)”, the relative phosphorylation was 0.446.

Same assay, conditions: V fixed; at -2
In the case of “RIPK1, construct: aa1-327 (from UniProt Q13546)”, the relative phosphorylation is reported as 1.26.
“AURKA, construct: Full length (from UniProt O14965)” showed a relative phosphorylation of 0.163.
“PRKACB, construct: Full length (from UniProt P22694)” was tested, and the relative phosphorylation was 0.191.

Same assay, conditions: V fixed; at -3
“RIPK1, construct: aa1-327 (from UniProt Q13546)” was tested, and the relative phosphorylation was 0.845.
In the case of “AURKA, construct: Full length (from UniProt O14965)”, the relative phosphorylation is reported as 0.425.
“PRKACB, construct: Full length (from UniProt P22694)” showed a relative phosphorylation of 0.184.

Same assay, conditions: V fixed; at -4
“RIPK1, construct: aa1-327 (from UniProt Q13546)” gave a relative phosphorylation of 1.22.
With “AURKA, construct: Full length (from UniProt O14965)” the relative phosphorylation was 0.699.
“PRKACB, construct: Full length (from UniProt P22694)” showed a relative phosphorylation of 0.482.

Same assay, conditions: V fixed; at -5
With “RIPK1, construct: aa1-327 (from UniProt Q13546)” the relative phosphorylation was 1.16.
“AURKA, construct: Full length (from UniProt O14965)” was tested, and the relative phosphorylation was 0.759.
Substance “PRKACB, construct: Full length (from UniProt P22694)” has a relative phosphorylation of 0.605.

Same assay, conditions: W fixed; at +1
Work on “RIPK1, construct: aa1-327 (from UniProt Q13546)” yielded a relative phosphorylation of 1.01.
Work on “AURKA, construct: Full length (from UniProt O14965)” yielded a relative phosphorylation of 1.26.
“PRKACB, construct: Full length (from UniProt P22694)” gave a relative phosphorylation of 1.05.

Same assay, conditions: W fixed; at +2
With “RIPK1, construct: aa1-327 (from UniProt Q13546)” the relative phosphorylation was 1.03.
For “AURKA, construct: Full length (from UniProt O14965)”, the relative phosphorylation was 0.881.
Substance “PRKACB, construct: Full length (from UniProt P22694)” has a relative phosphorylation of 1.03.

Same assay, conditions: W fixed; at +3
For “RIPK1, construct: aa1-327 (from UniProt Q13546)”, the relative phosphorylation was 1.88.
“AURKA, construct: Full length (from UniProt O14965)” gave a relative phosphorylation of 1.2.
Work on “PRKACB, construct: Full length (from UniProt P22694)” yielded a relative phosphorylation of 0.964.

Same assay, conditions: W fixed; at +4
“RIPK1, construct: aa1-327 (from UniProt Q13546)” showed a relative phosphorylation of 1.22.
In the case of “AURKA, construct: Full length (from UniProt O14965)”, the relative phosphorylation is reported as 1.22.
For “PRKACB, construct: Full length (from UniProt P22694)”, the relative phosphorylation was 0.66.

Same assay, conditions: W fixed; at -1
With “RIPK1, construct: aa1-327 (from UniProt Q13546)” the relative phosphorylation was 0.675.
With “AURKA, construct: Full length (from UniProt O14965)” the relative phosphorylation was 0.587.
In the case of “PRKACB, construct: Full length (from UniProt P22694)”, the relative phosphorylation is reported as 0.577.

Same assay, conditions: W fixed; at -2
In the case of “RIPK1, construct: aa1-327 (from UniProt Q13546)”, the relative phosphorylation is reported as 0.763.
With “AURKA, construct: Full length (from UniProt O14965)” the relative phosphorylation was 0.232.
“PRKACB, construct: Full length (from UniProt P22694)” was tested, and the relative phosphorylation was 0.236.

Same assay, conditions: W fixed; at -3
“RIPK1, construct: aa1-327 (from UniProt Q13546)” showed a relative phosphorylation of 1.02.
“AURKA, construct: Full length (from UniProt O14965)” was tested, and the relative phosphorylation was 0.779.
“PRKACB, construct: Full length (from UniProt P22694)” showed a relative phosphorylation of 0.329.

Same assay, conditions: W fixed; at -4
“RIPK1, construct: aa1-327 (from UniProt Q13546)” gave a relative phosphorylation of 1.29.
Substance “AURKA, construct: Full length (from UniProt O14965)” has a relative phosphorylation of 0.966.
Substance “PRKACB, construct: Full length (from UniProt P22694)” has a relative phosphorylation of 0.6.

Same assay, conditions: W fixed; at -5
Work on “RIPK1, construct: aa1-327 (from UniProt Q13546)” yielded a relative phosphorylation of 0.987.
“AURKA, construct: Full length (from UniProt O14965)” gave a relative phosphorylation of 0.906.
“PRKACB, construct: Full length (from UniProt P22694)” was tested, and the relative phosphorylation was 0.746.

Same assay, conditions: Y fixed; at +1
In the case of “RIPK1, construct: aa1-327 (from UniProt Q13546)”, the relative phosphorylation is reported as 1.15.
For “AURKA, construct: Full length (from UniProt O14965)”, the relative phosphorylation was 1.14.
In the case of “PRKACB, construct: Full length (from UniProt P22694)”, the relative phosphorylation is reported as 1.06.

Same assay, conditions: Y fixed; at +2
With “RIPK1, construct: aa1-327 (from UniProt Q13546)” the relative phosphorylation was 1.66.
In the case of “AURKA, construct: Full length (from UniProt O14965)”, the relative phosphorylation is reported as 2.77.
In the case of “PRKACB, construct: Full length (from UniProt P22694)”, the relative phosphorylation is reported as 0.709.

Same assay, conditions: Y fixed; at +3
Work on “RIPK1, construct: aa1-327 (from UniProt Q13546)” yielded a relative phosphorylation of 1.94.
“AURKA, construct: Full length (from UniProt O14965)” showed a relative phosphorylation of 1.36.
Substance “PRKACB, construct: Full length (from UniProt P22694)” has a relative phosphorylation of 0.855.

Same assay, conditions: Y fixed; at +4
“RIPK1, construct: aa1-327 (from UniProt Q13546)” was tested, and the relative phosphorylation was 1.18.
“AURKA, construct: Full length (from UniProt O14965)” gave a relative phosphorylation of 0.948.
“PRKACB, construct: Full length (from UniProt P22694)” was tested, and the relative phosphorylation was 0.698.

Same assay, conditions: Y fixed; at -1
Substance “RIPK1, construct: aa1-327 (from UniProt Q13546)” has a relative phosphorylation of 1.04.
“AURKA, construct: Full length (from UniProt O14965)” was tested, and the relative phosphorylation was 1.33.
With “PRKACB, construct: Full length (from UniProt P22694)” the relative phosphorylation was 0.839.

Same assay, conditions: Y fixed; at -2
“RIPK1, construct: aa1-327 (from UniProt Q13546)” showed a relative phosphorylation of 0.682.
